Key:
NF-κB = assay: Electrophoresis mobility shift assay (EMSA) with BMDM nuclear extracts; assay type: cell-based, mouse; conditions: SAA-stimulated BMDM, after 30 min
Protocol: To investigate the mechanism for SAA-induced G-CSF production, the level of G-CSF transcript in SAA-stimulated BMDM was determined. […] The induction of G-CSF transcript peaked at 4 h after SAA stimulation. Since transcription of the G-CSF gene involves NF-κB binding to the RelA/p65 consensus element in the CK-1 site of the G-CSF promoter (Dunn et al., 1994; Hareng and Hartung, 2002), the role of NF-κB in SAA-stimulated G-CSF expression was determined. […] Using oligonucleotide probe based on the sequence of the CK-1 site (−161 to −152 in the G-CSF promoter), a protein •DNA complex (FIG. 2C) was identified. […] Inclusion of a RelA/p65 antibody blocking peptide in the assay abrogated the immunoprecipitation (FIG. 2D).
EMSA: Nuclear extracts were isolated using the method of Dignam et al (Dignam et al., 1983) with minor modifications. For each sample, 5×10^6 cells were used. Radiolabeling of the NF-κB probe and CK-1 probe, binding reactions, electrophoresis, and autoradiography were conducted as described previously (He et al., 2003).

TLR2:Fc fusion protein = target: T1, TLR2:Fc fusion protein (Homo sapiens, UniProt O60603); assay: SAA-TLR2 interaction, ELISA-like binding assay; conditions: 0.0625 to 8 μg/ml ligand coated, 2 μg/ml TLR2:Fc
T1 construct: measured in an ELISA-like assay using a TLR2 extracellular domain:Fc fragment fusion protein; made in house; host or cells: CHO cells (pFuse-Fc vector, InvivoGen), purified from culture supernatant on protein A
Source text: Another example of a method for screening antagonists that disrupt the SAA/TLR2 interaction involves a binding assay that includes a TLR2 ectodomain (extracellular domain) fused to an Fc fragment of immunoglobulin (TLR2:Fc), such as the assay used in FIG. 9B. This assay is typically used as a follow-up or secondary assay to that assay described above. In other words, any compounds collected from the assay described above are subjected to the TLR2:Fc-based binding assay to confirm that the antagonistic effect is on the disruption of SAA-TLR2 binding. This method is generally carried out as follows and is also described in the Examples. A TLR2:Fc fusion protein is generated such that the N-terminal 588 amino acids of human TLR2 are fused in frame to the Fc portion of mouse IgG2a. The cDNA encoding for the resulting chimeric protein is cloned in pFuse-Fc vector (InvivoGen), and stably transfected into CHO cells. […] Absorbance at 450 nm is measured on a SpectraMax 340 plate reader (Molecular Devices).
Assays for SAA-TLR2 interaction: The TL2:Fc fusion protein was generated such that the N-terminal 588 amino acids of human TLR2 protein were fused in frame with the Fc portion of mouse IgG2a. […] Absorbance at 450 nm was measured on a SpectraMax 340 plate reader (Molecular Devices). […]

T1 sequence (O60603 21-588 limits assumed): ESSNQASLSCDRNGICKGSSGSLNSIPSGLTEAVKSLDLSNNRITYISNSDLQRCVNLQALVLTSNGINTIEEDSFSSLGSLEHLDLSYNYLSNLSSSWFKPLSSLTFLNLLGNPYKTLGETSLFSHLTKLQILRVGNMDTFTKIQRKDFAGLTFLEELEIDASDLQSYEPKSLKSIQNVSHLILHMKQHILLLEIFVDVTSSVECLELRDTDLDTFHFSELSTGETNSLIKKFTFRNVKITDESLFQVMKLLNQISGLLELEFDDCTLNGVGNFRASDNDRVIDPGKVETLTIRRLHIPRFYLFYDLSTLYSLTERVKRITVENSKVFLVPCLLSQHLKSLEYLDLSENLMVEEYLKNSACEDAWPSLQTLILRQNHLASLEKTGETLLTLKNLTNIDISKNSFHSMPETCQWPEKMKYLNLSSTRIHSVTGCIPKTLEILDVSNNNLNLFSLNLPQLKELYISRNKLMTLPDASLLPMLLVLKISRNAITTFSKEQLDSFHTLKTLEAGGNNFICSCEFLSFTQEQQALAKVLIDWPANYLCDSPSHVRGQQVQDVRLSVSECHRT

B1: SAA: Recombinant human SAA purchased from PeproTech; major acute-phase protein of 104 amino acids (protein, UniProt P0DJI8 19-122, looked up)
Serum amyloid A-1 protein: RSFFSFLGEAFDGARDMWRAYSDMREANYIGSDKYFHARGNYDAAKRGPGGAWAAEVITDARENIQRFFGHGAEDSLADQAANEWGRSGKDPNHFRPAGLPEKY
formation of NF-κB•DNA complex (NF-κB): stimulated the formation of NF-κB•DNA complex | binding to TLR2:Fc fusion protein (TLR2:Fc fusion protein): dose-dependent increase in SAA binding
